Biological target: T1, Human OX40 expressed on transfected Jurkat or CHO cells (human, UniProt P43489 29-277)
T1 construct: also called human OX40/Jurkat; human OX40/CHO
T1 sequence: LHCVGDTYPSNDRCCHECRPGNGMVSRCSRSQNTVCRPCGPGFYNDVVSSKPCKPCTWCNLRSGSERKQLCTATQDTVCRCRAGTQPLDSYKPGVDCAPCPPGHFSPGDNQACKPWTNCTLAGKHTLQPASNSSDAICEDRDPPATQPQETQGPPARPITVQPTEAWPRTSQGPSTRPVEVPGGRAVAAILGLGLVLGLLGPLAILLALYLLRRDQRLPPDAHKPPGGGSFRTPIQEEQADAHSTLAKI
Experiment: flow cytometry on human OX40-transfected Jurkat cells, Alexa Fluor488 anti-human IgG Fc, Geo MFI
Procedure: FIGS. 2A-2C depict whole cell binding of humanized anti-OX40 antibodies to human or cynomolgus OX40 assessed by flow cytometry. Human OX40-expressing Jurkat cells (FIG. 2A), human OX40-expressing CHO cells (FIG. 2B) and cynomolgus OX40-expressing CHO cells (FIG. 2C) were incubated with indicated anti-OX40 bivalent antibodies, and then stained with Alexa Fluor488 conjugated anti-human IgG Fc antibody. The fluorescence intensity was measured by flow cytometry.
Bivalent antibodies of these 15 clones were made by fusing VHH to human IgG1 Fc, expressed in ExpiCHO cells, and purified by Protein A affinity column. Binding affinity of the VHH-Fc bivalent antibodies to human or cynomolgus OX40 was evaluated by flow cytometry using Jurkat cells transfected with human OX40 (human OX40/Jurkat) (FIG. 2A), CHO cells transfected with human OX40 (human OX40/CHO) (FIG. 2B), and CHO cells transfected with cynomolgus OX40 (cyno OX40/CHO) (FIG. 2C). These antibodies with indicated concentrations were incubated with the cells in FACS buffer (3% FBS in PBS) on ice for 30 min, and the free antibodies were washed out with FACS buffer. […] Binding affinity was calculated using GraphPad Prism three parameter logistic equation. […]

EC50 (read off the curve): ~3 nM
B1: 1B3 VHH-Fc bivalent antibody (antibody, human IgG1, V domains shown)
VH: EVQLVESGGGLVQPGGSLRLSCAASGPLGMPSIAWFRQAPGKGLEFVSGIAWSTGDTYYADSVKGRFTISRDNSKNTLYLQMNSLRAEDTAVYYCAADTQVHYMGRHDIRDREEYDYWGQGTLVTVSS
notes: no light chain; also called 1B3-bivalent

Reference: patent US20240383995A1 (SHANGHAI HENLIUS BIOTECH, published 2024)
